From patent US20200291118A1 (HANX BIOPHARMACEUTICS, published 2020)

Key:
hPD-1-hIgGFc antigen [1] = biological target: T1, hPD-1-hIgGFc antigen (human, UniProt Q15116 25-167, limits assumed); experiment: competition ELISA on coated hPD-1-hIgGFc; competitor PD-L1-mIgG2aFc
T1 construct: not shown: human IgG Fc
Method: A 96-well ELISA plate was coated with hPD-1-hIgGFc antigen at a concentration of 0.5 μg/ml (50 μl per well) by incubation at 4° C. overnight.

hPD-1-his antigen [2] = biological target: T2, hPD-1-his antigen (human, UniProt Q15116 25-167, limits assumed); experiment: ELISA on coated hPD-1-his; antibody 1:5 of 2 µg/ml
T2 construct: Coating antigen; not shown: his tag
Method: (§1) An ELISA plate was coated with hPD-1-his antigen at a concentration of 0.25 μg/ml (100 μl per well) by incubation at 4° C. overnight.
(§2) The ELISA plate coated with the hPD-1-his antigen was blocked with 1% BSA (diluted in the PBS buffer) at 37° C. for 2 hours, and then washed with 1×PBST buffer containing 1% Tween-20 for three times, with gently patting to dryness.
(§3) The absorbance of solution in each well was measured on a microplate reader under a wavelength of 450 nm.

hPD-1-hIgGFc antigen [3] = biological target: T1, hPD-1-hIgGFc antigen; experiment: competition ELISA on coated hPD-1-hIgGFc; competitor PD-L2-his tag
Method: A 96-well ELISA plate was coated with hPD-1-hIgGFc antigen at a concentration of 1.0 μg/ml (100 μl per well) by incubation at 4° C. overnight.
After the 96-well ELISA plate was washed with the PBST buffer for five times and gently patted to dryness, HRP conjugated anti-his tag mouse monoclonal antibody as a secondary antibody in 1:750 dilution (50 μl per well) was added for incubation at 37° C. for 1 hour.

hPD-1-his antigen [4] = biological target: T2, hPD-1-his antigen; experiment: ELISA on coated hPD-1-his
Method: as §1, §2, §3

T1 sequence (Q15116 25-167 limits assumed): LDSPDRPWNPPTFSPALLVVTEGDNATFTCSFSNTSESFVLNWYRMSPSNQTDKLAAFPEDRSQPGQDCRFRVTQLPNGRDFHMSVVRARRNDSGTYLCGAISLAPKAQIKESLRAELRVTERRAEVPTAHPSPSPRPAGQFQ
T2 sequence (Q15116 25-167 limits assumed): as above

IC50 (hPD-1-hIgGFc antigen [1]): 1 nM | absorbance at 450 nm (hPD-1-his antigen [2]): 1.76 | IC50 (hPD-1-hIgGFc antigen [3]): 2.7 nM | EC50 (hPD-1-his antigen [4]): 0.05 nM
B1: humanized antibody H8 (anti-PD-1 IgG antibody) (antibody, V domains shown)
VH: EVQLVQSGGGLVQPGGSLKLSCAASGFTFSSYGMSWVRQAPGKGLDWVATISGGGRDTYYPDSVKGRFTISRDNSKNNLYLQMNSLRAEDTALYYCARQKGEAWFAYWGQGTLVTVSA
VL: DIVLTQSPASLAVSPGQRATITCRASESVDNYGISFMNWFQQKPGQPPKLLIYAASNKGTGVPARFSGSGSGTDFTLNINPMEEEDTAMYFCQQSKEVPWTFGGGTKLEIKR
notes: also called HX008; HX008 18A10 antibody
